In patent publication US7393448B2, “Method of binding a compound to a sensor surface” (Applied NanoSystems B.V., priority 2002, dated 2008):

Key:
[1] = Immobilization of cholesterol oxidase on hydrophobin-coated glassy carbon electrode, current response to cholesterol; type: biochemical; details: GCE, phosphate buffer pH 7 (25 mM), cholesterol added
Text: Immobilization of cholesterol oxidase on a glassy carbon electrode. […] The coated electrode was submerged in a cholesterol oxidase-containing solution (0.5 U/ml) for two hours and rinsed with water.
To overcome the poor solubility of cholesterol in water, the cholesterol was solubilized in isopropanol with Triton in phosphate buffer (Ropers, M-H. et al., 2001, Phys. Chem. Chem. Phys. 3:240-245). Upon addition of cholesterol, the immobilized cholesterol oxidase catalyzed the reaction and led to formation of hydrogen peroxide. The peroxide produced a small detectable current over the electrode which correlated to the concentration of cholesterol added.

[2] = Immobilization of electroactive molecules on HYDPt-1-modified electrodes (cyclic voltammetry); type: physicochemical; details: Q10 bound to GCE covered with HYDPt-1
Description: Electrochemical experiments. Voltammetry experiments were done at 20° C. in three-electrode arrangement, with a calomel reference electrode, platinum foil counter electrode and GE, GCE or TMFE as working electrodes. Eco Chemie AUTO-LAB PGSTAT 30 system was used as the potentiostat with an IBM PC and Eco Chemie software. In order to prepare the TMFE, a silver wire or silver disk electrode precleaned in concentrated perchloric acid was touched to a drop of mercury and cathodically polarized in 0.1 M KOH to obtain a shining and uniform layer of mercury, ca. 1 mm thick. The GE and GCE were polished on Buehler polishing papers and paste, and the GE was cleaned in concentrated nitric acid. The electrodes were coated with the self-assembled hydrophobin upon contact with the surface of solutions containing 2 μg of hydrophobin per 1 ml of 10 mM Tris-HCl buffer. The time of the hydrophobin self-assembly and the conditions of Q0, Q10 and diazobenzene adsorption on hydrophobin-coated electrodes are given below.
Hydrophobin as a “molecular glue” for immobilizing molecules on the electrode surface. In the present work, we checked the ability of HYDPt-1 to bind through adsorption to different types of electroactive molecules to electrode surfaces. […]
Curve 1 was recorded after adsorption of the diazobenzene for the same lapse of time, but on the bare GCE. […]

[3] = cited from earlier work
[4] = at 50 μg ml^−1; cited from earlier work

Question: Which “enzyme activity upon immobilization on the hydrophobin layer” value [1] does the source give for cholesterol oxidase here?
Answer: remaining active

Question: Which “stability of ubiquinone reduction and oxidation signals” value [2] does the source give for `COC1=C(OC)C(=O)C(C/C=C(\C)CC/C=C(\C)CC/C=C(\C)CC/C=C(\C)CC/C=C(\C)CC/C=C(\C)CC/C=C(\C)CC/C=C(\C)CC/C=C(\C)CCC=C(C)C)=C(C)C1=O` [Q10, ubiquinone 50] here?
Answer: remained unchanged for several weeks

B1: SC3: best characterized class I hydrophobin, of Schizophyllum commune (protein, UniProt P16933 25-136, looked up)
Class I hydrophobin SC3: GGHPGTTTPPVTTTVTVTTPPSTTTIAAGGTCTTGSLSCCNQVQSASSSPVTALLGLLGIVLSDLNVLVGISCSPLTVIGVGGSGCSAQTVCCENTQFNGLINIGCTPINIL
Question: What does the source list for B1?
Answer: water contact angle, hydrophilic side of SC3 membrane ([3]; hydrophilic side): 36 °; water contact angle, hydrophobic side of SC3 membrane ([3]; hydrophobic side): 110 °; maximal lowering of the water surface tension (from 72) [4]: 24 mJ m^−2
